In the experiment the target is CD46 on target cells (LNCAP-C4-B2 and other prostate cancer cell lines) (UniProt P15529). As to the kind of experiment: cell-based or functional assay.
Sequence of UniProt P15529 (P15529 35-392 limits assumed): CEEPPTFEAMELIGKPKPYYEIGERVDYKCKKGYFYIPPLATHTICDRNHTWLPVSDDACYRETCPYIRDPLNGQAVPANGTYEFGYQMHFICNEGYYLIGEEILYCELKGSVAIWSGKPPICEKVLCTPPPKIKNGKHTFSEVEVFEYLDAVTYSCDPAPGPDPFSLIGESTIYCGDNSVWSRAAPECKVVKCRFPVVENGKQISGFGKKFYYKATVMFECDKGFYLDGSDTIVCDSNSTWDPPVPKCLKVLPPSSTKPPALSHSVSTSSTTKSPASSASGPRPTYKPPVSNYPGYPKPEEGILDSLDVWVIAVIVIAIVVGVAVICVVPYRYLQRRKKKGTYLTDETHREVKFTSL

Take “anti-CD46 CAR (YS5FL-scFv in a second generation lentivirus CAR containing CD28 and CD3zeta), on transduced human T cells”: the killing rate of LNCAP-C4-B2 target cells (real time cytotoxicity assay, impedance, effector:target 10:1) is more than 99%.

The record behind these values is patent US20190300620A1.
